Laboratory results published in PMC3103430, “RecA Proteins from Deinococcus geothermalis and Deinococcus murrayi - Cloning, Purification and Biochemical Characterisation”.

What was measured:
DmuRecA = DmuRecA (Deinococcus murrayi DSM 11303, UniProt E7CG23 1-359); experiment: EMSA; 8-10 mM Mg2+ (most efficient), ATPgS + ATP, 37 C; 20 mM potassium phosphate pH 7.5, 0-10 mM MgCl2, 110 uM ATPgS + 300 uM ATP (ssDNA, 9 uM RecA) or 180 uM ATPgS + 500 uM ATP (dsDNA, 12 uM RecA), 30 min at 37 C (25-75 C series for ssDNA), 0.8% agarose gel; conditions: protein: recombinant; tags: none (native start and stop codons, NdeI/XhoI in pET-30Ek/LIC); label: 5'-fluorescein
DgeRecA = DgeRecA (Deinococcus geothermalis DSM 11302, UniProt Q1IWF2 1-358); experiment: as above; conditions: protein: recombinant; tags: none (native start and stop codons, NdeI/HindIII in pET-30Ek/LIC); label: 5'-fluorescein
Sequence of DgeRecA (Q1IWF2 whole entry): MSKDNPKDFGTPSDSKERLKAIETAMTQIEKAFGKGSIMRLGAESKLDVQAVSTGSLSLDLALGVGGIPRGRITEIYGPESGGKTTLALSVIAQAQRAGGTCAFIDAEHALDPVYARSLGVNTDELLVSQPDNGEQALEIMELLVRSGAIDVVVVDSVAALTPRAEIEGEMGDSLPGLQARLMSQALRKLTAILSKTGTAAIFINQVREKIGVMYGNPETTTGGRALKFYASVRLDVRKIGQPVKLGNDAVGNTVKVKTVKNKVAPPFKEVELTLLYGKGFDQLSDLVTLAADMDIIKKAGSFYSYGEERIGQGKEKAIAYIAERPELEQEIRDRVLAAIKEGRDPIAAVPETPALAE

TTTTTTTTTTTTTTTTTTTTTTTTTTTTTTTTTTT (ssDNA) [oligo(dT)35]
binding result (DmuRecA): binds
binding result (DgeRecA): binds
